The text below walks through data of patent US20240141060A1 (Novartis, published 2024).

As usually defined, the Kd is a measure of binding affinity in units of concentration.

Where a chain is given by its changes, count along the chain named.

First the molecules themselves.
B1: 930 (antibody, V domains shown)
VH: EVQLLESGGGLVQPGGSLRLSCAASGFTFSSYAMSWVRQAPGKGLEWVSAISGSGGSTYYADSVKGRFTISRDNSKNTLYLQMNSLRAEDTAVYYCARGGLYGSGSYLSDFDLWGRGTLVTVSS
VL: EIVLTQSPATLSVSPGERATLSCRASQSVGSNLAWYQQKPGQAPRLLIYGASTRATGIPARFSGSGSGTEFTLTISSLQSEDFAVYYCQQHNAFPYTFGGGTKVEIK
notes: also called parental antibody 930; Lineage 3 parent
B2: 373 (antibody, V domains shown)
VH: EVQLLESGGGLVQPGGSLRLSCAASGFTFHRYAMSWVRQAPGKGLEWVSAISGSGMNTYYADSVKGRFTISRDNSKNTLYLQMNSLRAEDTAVYYCARGGLYGSGSYLSDFDLWGRGTLVTVSS
VL: B1 VL
notes: also called Lineage 3 child
B3: 377 (antibody, V domains shown)
VH: B2 VH with H30K, R31S, M56S, N57Y
VL: B1 VL
notes: also called progeny antibody 377; Lineage 3 child
B4: 379 (antibody, V domains shown)
VH: B2 VH with H30S, A50S, S54T, M56G, N57S
VL: B1 VL
notes: also called progeny antibody 379; Lineage 3 child
B5: 374 (antibody, V domains shown)
VH: B2 VH with H30S, R31Y, Y32N, A50S, S54T, M56G, N57S
VL: B1 VL
notes: also called Lineage 3 child
B6: 376 (antibody, V domains shown)
VH: B2 VH with H30R, R31S, S52T, M56G, N57L
VL: B1 VL
notes: also called progeny antibody 376; Lineage 3 child
B7: 930.C (antibody, V domains shown)
VH: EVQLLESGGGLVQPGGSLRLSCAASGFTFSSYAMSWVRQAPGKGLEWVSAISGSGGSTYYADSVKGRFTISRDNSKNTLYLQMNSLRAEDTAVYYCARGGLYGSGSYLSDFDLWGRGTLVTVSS
VL: B1 VL
notes: also called 930 IgG1 format
B8: 379.C (antibody, V domains shown)
VH: B2 VH with H30S, A50S, S54T, M56G, N57S
VL: B1 VL
notes: also called 379 IgG1 format
B9: 374.C (antibody, V domains shown)
VH: B2 VH with H30S, R31Y, Y32N, A50S, S54T, M56G, N57S
VL: B1 VL
B10: 373.C (antibody, V domains shown)
VH: B2 VH
VL: B1 VL
B11: 376.C (antibody, V domains shown)
VH: B2 VH with H30R, R31S, S52T, M56G, N57L
VL: B1 VL
notes: also called 376 IgG1 format
B12: 377.C (antibody, V domains shown)
VH: B2 VH with H30K, R31S, M56S, N57Y
VL: B1 VL
notes: also called 377 IgG1 format
B13: 356.C (antibody, V domains shown)
VH: QVQLQESGPGLVKPSETLSLTCTVSGGSIEGRYWSWIRQPPGKGLEWIGYIYGSGSTKYNPSLKSRVTISVDTSKNQFSLKLSSVTAADTAVYYCARESQESPYNNWFDPWGQGTLVTVSS
VL: DIQMTQSPSSVSASVGDRVTITCRASQGISSWLAWYQQKPGKAPKLLIYAASSLQSGVPSRFSGSGSGTDFTLTISSLQPEDFATYYCQQGNSFPRTFGGGTKVEIK
B14: 358.C (antibody, V domains shown)
VH: B13 VH with E30S, S54T, K58N
VL: B13 VL
B15: 918.C (antibody, V domains shown)
VH: B13 VH with E30S, G31S, R32Y, G53S, K58N
VL: B13 VL

One assay addresses T1, Recombinant Mouse 5′-Nucleotidase/CD73 Protein, CF (R&D Systems Cat: 4488-EN) (mouse, UniProt Q61503 29-549, limits assumed).
T1 construct: Bought protein; also called Mouse CD73-His; recombinant mouse CD73; not shown: His tag
T1 sequence (looked up): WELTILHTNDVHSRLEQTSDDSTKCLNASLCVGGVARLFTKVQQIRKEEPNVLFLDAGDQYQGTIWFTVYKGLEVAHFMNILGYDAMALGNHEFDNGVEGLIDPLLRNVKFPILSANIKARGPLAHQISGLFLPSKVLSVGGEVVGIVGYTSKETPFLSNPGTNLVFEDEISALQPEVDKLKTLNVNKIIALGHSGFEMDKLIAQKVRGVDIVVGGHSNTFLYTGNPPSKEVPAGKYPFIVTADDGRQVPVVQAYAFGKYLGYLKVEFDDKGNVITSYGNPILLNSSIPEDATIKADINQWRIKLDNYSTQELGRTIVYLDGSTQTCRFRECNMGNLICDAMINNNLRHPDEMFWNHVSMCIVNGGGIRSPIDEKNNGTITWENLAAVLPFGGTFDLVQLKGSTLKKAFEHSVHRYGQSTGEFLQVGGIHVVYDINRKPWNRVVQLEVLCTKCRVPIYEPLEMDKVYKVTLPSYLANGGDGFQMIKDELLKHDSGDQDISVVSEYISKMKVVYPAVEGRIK
As to the kind of experiment: restated binding profile (Octet). (In general: In BLI a coated tip is dipped into the sample, and binding shifts an interference pattern.)
For B1, the binding result is listed as “no binding”.

Turning to B2, the binding result was “no binding”.

In the case of B3, the binding result was “no binding”.

Regarding B4, the binding result is listed as “no binding”.

With B5, the binding result was “no binding”.

Consider B6, for which the binding result is “no binding”.

The target in another assay is T1, Recombinant Mouse 5′-Nucleotidase/CD73 …. The experiment in a line: ForteBio Octet RED384 (BLI), whole IgG on AHQ sensors, 1:1 model. Here is the method: (§1) Briefly, ForteBio affinity measurements were performed by loading IgGs on-line onto AHQ sensors. Sensors were equilibrated off-line in assay buffer for 30 min and then monitored on-line for 60 seconds for baseline establishment. Sensors with loaded IgGs were exposed to 100 nM antigen for 3 minutes, and afterwards were transferred to assay buffer for 3 min for off-rate measurement. All kinetics were analyzed using the 1:1 binding model. Antigens used were: [0438] Human CD73-His: Recombinant Human 5′-Nucleotidase/CD73 Protein, CF from R&D Systems Cat: 5795-EN [0439] Mouse CD73-His: Recombinant Mouse 5′-Nucleotidase/CD73 Protein, CF from R&D Systems Cat: 4488-EN [0440] Cynomolgus CD73-His: Cynomolgus CD73/NT5E Protein (His Tag) from Sino Biological Cat: 90192-C08H-50
As to B7, the binding result is given as “no binding (tested: 100 nM antigen)”.

Consider B8, for which the binding result is “no binding (tested: 100 nM antigen)”.

As for B9, the binding result is “no binding (tested: 100 nM antigen)”.

B10: the binding result is reported as “no binding (tested: 100 nM antigen)”.

With B11, the binding result is “no binding (tested: 100 nM antigen)”.

In the case of B12, the binding result is “no binding (tested: 100 nM antigen)”.

Another assay concerns the target T2, Recombinant Human 5′-Nucleotidase/CD73 Protein, CF (R&D Systems Cat: 5795-EN) (human, UniProt P21589 27-547).
T2 construct: Bought protein; also called Human CD73-His; recombinant human CD73; not shown: His tag
T2 sequence (looked up): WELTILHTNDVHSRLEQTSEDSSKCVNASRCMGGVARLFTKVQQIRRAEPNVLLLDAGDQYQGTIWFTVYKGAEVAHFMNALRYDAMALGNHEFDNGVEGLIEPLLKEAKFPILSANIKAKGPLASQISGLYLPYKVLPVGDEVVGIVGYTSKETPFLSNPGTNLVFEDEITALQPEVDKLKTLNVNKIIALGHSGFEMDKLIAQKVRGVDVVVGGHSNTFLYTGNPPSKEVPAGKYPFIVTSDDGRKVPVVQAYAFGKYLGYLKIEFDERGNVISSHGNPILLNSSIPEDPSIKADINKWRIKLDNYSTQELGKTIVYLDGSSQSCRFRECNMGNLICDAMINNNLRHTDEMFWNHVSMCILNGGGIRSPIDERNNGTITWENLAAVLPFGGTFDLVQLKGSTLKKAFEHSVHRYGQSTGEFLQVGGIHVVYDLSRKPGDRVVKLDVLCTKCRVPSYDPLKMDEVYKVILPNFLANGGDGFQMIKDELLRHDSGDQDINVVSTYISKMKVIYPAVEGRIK
As to the kind of experiment: ForteBio Octet RED384 (BLI), whole IgG on AHQ sensors, 100 nM antigen, 1:1 model; * value approaching upper limit for Kd measurement. On the procedure: as §1
For the molecule B13, the Kd worked out at 0.243 nM.

The next assay concerns the target T1, Recombinant Mouse 5′-Nucleotidase/CD73 …. The experiment in a line: ForteBio Octet RED384 (BLI), whole IgG on AHQ sensors, 100 nM antigen, 1:1 model. Here is the method:
as §1
As for B14, the dissociation constant Kd was determined as 3.51 nM.

With B13, the Kd is 0.401 nM.

On to B15, for which the Kd is 8.88 nM.

The target in a further assay is T3, Cynomolgus CD73/NT5E Protein (His Tag) (Sino Biological Cat: 90192-C08H-50) (cynomolgus monkey, UniProt A0A2K5V5U7 27-547).
T3 construct: treated as one protein; also called Cynomolgus CD73-His; recombinant cynomolgus monkey CD73; not shown: His tag
T3 sequence: T2 sequence (looked up) with M199T, T350A, V466I
The description is as above. Here is the method:
as §1
As to B14, the Kd came out at 0.814 nM.

B13 returned a Kd of 0.693 nM.

The molecule B8 yielded a Kd of 1.62 nM.

In turn, B9 showed a dissociation constant Kd of 0.103 nM.

B10 showed a Kd of 0.914 nM.

With B12, the dissociation constant (Kd) is 1.42 nM.

In a further assay the target is T2, Recombinant Human 5′-Nucleotidase/CD73 …. Described as above. On the procedure:
as §1
Consider B14, for which the Kd is 0.317 nM.

In the case of B15, the Kd stood at 1.53 nM.

With B7, the Kd turned out to be 1.83 nM.

Regarding B8, the dissociation constant (Kd) was 0.55 nM.

Turning to B9, the Kd came to 0.358 nM.

With B10, the dissociation constant (Kd) turned out to be 0.621 nM.

With B11, the Kd was determined as 0.301 nM.

On to B12, for which the Kd is 0.572 nM.
